Data taken from publication doi:10.1101/2025.06.03.657256 (bioRxiv, 2025).

B1: PLIN4-20mer (domain or fragment, human, UniProt Q96Q06 260-919, looked up)
chain: SKTVLTGTKDTVCSGVTGAMNVAKGTIQTGVDTSKTVLTGTKDTVCSGVTGAMNVAKGTIQTGVDTSKTVLTGTKDTVCSGVTGAMNVAKGTIQTGVDTTKTVLTGTKNTVCSGVTGAVNLAKEAIQGGLDTTKSMVMGTKDTMSTGLTGAANVAKGAMQTGLNTTQNIATGTKDTVCSGVTGAMNLARGTIQTGVDTTKIVLTGTKDTVCSGVTGAANVAKGAVQGGLDTTKSVLTGTKDAVSTGLTGAVNVAKGTVQTGVDTTKTVLTGTKDTVCSGVTSAVNVAKGAVQGGLDTTKSVVIGTKDTMSTGLTGAANVAKGAVQTGVDTAKTVLTGTKDTVTTGLVGAVNVAKGTVQTGMDTTKTVLTGTKDTIYSGVTSAVNVAKGAVQTGLKTTQNIATGTKNTFGSGVTSAVNVAKGAAQTGVDTAKTVLTGTKDTVTTGLMGAVNVAKGTVQTSVDTTKTVLTGTKDTVCSGVTGAANVAKGAIQGGLDTTKSVLTGTKDAVSTGLTGAVKLAKGTVQTGMDTTKTVLTGTKDAVCSGVTGAANVAKGAVQMGVDTAKTVLTGTKDTVCSGVTGAANVAKGAVQTGLKTTQNIATGTKNTLGSGVTGAAKVAKGAVQGGLDTTKSVLTGTKDAVSTGLTGAVNLAKGTVQTGVDT
B2: 4x1mer[260:] released from MBP-4x1mer[260:] by TEV protease (domain or fragment, human, UniProt Q96Q06 260-292, looked up)
chain: SKTVLTGTKDTVCSGVTGAMNVAKGTIQTGVDTSKTVLTGTKDTVCSGVTGAMNVAKGTIQTGVDTSKTVLTGTKDTVCSGVTGAMNVAKGTIQTGVDTSKTVLTGTKDTVCSGVTGAMNVAKGTIQTGVDT
B3: 1mer[260:] (peptide, UniProt Q96Q06 260-292, looked up)
peptide: SKTVLTGTKDTVCSGVTGAMNVAKGTIQTGVDT
B4: PLIN4-4mer[326:] (domain or fragment, human, UniProt Q96Q06 326-457, looked up)
chain: SKTVLTGTKDTVCSGVTGAMNVAKGTIQTGVDTTKTVLTGTKNTVCSGVTGAVNLAKEAIQGGLDTTKSMVMGTKDTMSTGLTGAANVAKGAMQTGLNTTQNIATGTKDTVCSGVTGAMNLARGTIQTGVDT
B5: PLIN4-4mer[557:] (domain or fragment, human, UniProt Q96Q06 557-688, looked up)
chain: TKSVVIGTKDTMSTGLTGAANVAKGAVQTGVDTAKTVLTGTKDTVTTGLVGAVNVAKGTVQTGMDTTKTVLTGTKDTIYSGVTSAVNVAKGAVQTGLKTTQNIATGTKNTFGSGVTSAVNVAKGAAQTGVDT
B6: PLIN4-4mer[689:] (domain or fragment, human, UniProt Q96Q06 689-820, looked up)
chain: AKTVLTGTKDTVTTGLMGAVNVAKGTVQTSVDTTKTVLTGTKDTVCSGVTGAANVAKGAIQGGLDTTKSVLTGTKDAVSTGLTGAVKLAKGTVQTGMDTTKTVLTGTKDAVCSGVTGAANVAKGAVQMGVDT

Target: the molecule itself
Assay: negative-stain EM of fibrils

Binding result, binds:
B1

Target: the molecule itself
Assay: thioflavin T

Binding result, binds:
B2
B3
B4
B5
B6
